{
  "source": "patent US20170258870",
  "molecular_target": "myc-tagged LIMP-2",
  "data": [
    {"protein": "wild-type β-glucocerebrosidase (GC), human, overexpressed in cells (protein) ARPCIPKSFGYSSVVCVCNATYCDSFDPPTFPALGTFSRYESTRSGRRMELSMGPIQANHTGTGLLLTLQPEQKFQKVKGFGGAMTDAAALNILALSPPAQNLLLKSYFSEEGIGYNIIRVPMASCDFSIRTYTYADTPDDFQLHNFSLPEEDTKLKIPLIHRALQLAQRPVSLLASPWTSPTWLKTNGAVNGKGSLKGQPGDIYHQTWARYFVKFLDAYAEHKLQFWAVTAENEPSAGLLSGYPFQCLGFTPEHQRDFIARDLGPTLANSTHHNVRLLMLDDQRLLLPHWAKVVLTDPEAAKYVHGIAVHWYLDFLAPAKATLGETHRLFPNTMLFASEACVGSKFWEQSVRLGSWDRGMQYSHSIITNLLYHVVGWTDWNLALNPEGGPNWVRNFVDSPIIVDITKDTFYKQPMFYHLGHFSKFIPEGSQRVGLVASQKNDLDAVALMHPDGSAVVVVLNRSSKDVPLTIKDPAVGFLETISPGYSIHTYLWRRQ", "values": [
      {"measurement": "GC enzymatic activity on co-expression with LIMP-2", "value": "Upon co-expression of wild-type GC and LIMP-2 we observed a significant increase in GC activity"}
    ]}
  ]
}
